Test [1] has as its target antibodies of human serum sample 175 1811 (HCV-negative serum with interference) (human). Put plainly: Vidas anti-HCV immunoassay: index of the serum on coated HCV Core/NS3/NS4 antigens with 5 ug/ml peptide added (competition).
Test [2] concerns the target antibodies of human serum sample 284 2408 (HCV-negative serum with interference) (human). The test is described as above.
Test [3] deals with antibodies of human serum sample 498 (HCV-negative serum with interference) (human). Described as above.
Test [4] has as its target antibodies of human serum sample 801 1409 (HCV-negative serum with interference) (human). Described as above.
Test [5] deals with antibodies of human serum sample F53 3009 (HCV-negative serum with interference) (human). The description is as above.
Test [6] addresses antibodies of human serum sample H48 (HCV-negative serum with interference) (human). The test is described as above.
Test [7] has as its target antibodies of human serum sample M43 (HCV-negative serum with interference) (human). The description is as above.
Test [8] deals with anti-HCV antibodies of positive control sample C1 (commercial serum pool, Trina Bioreactives AG). Put plainly: Vidas anti-HCV immunoassay: index of the positive control on coated HCV Core/NS3/NS4 antigens with 5 ug/ml peptide added (competition).
The target of test [9] is antibodies of human serum sample 295 (HCV-negative serum with interference) (human). Nature of the test: Vidas anti-HCV immunoassay: index of the serum on coated HCV Core/NS3/NS4 antigens with 1 ug/ml peptide added (competition).
Test [10] deals with antibodies of human serum sample F25 (HCV-negative serum with interference) (human). The description is as above.
The target of test [11] is anti-HCV antibodies of positive control sample C1 (commercial serum pool, Trina Bioreactives AG). Nature of the test: Vidas anti-HCV immunoassay: index of the positive control on coated HCV Core/NS3/NS4 antigens with 1 ug/ml peptide added (competition).

B1: peptide Y7E-1 (Staphylococcus aureus) (peptide)
peptide: YSPTHYVPE
Regarding B1, the Index in test [1] amounted to 0.47 index; in test [2] it was 0.86 index; in [3], 0.14 index; in [4], 0.71 index; in test [5], 0.32 index; in test [6] it was 0.88 index. The Index in test [7] came to 0.17 index; in test [8] it was 3.02 index.

B2: peptide V7E (HCV) (peptide)
peptide: VSPTHYVPE
For the molecule B2, the Index amounted to 0.49 index in [1]; 1.51 index in [2]; 0.35 index in test [3]; 1.04 index in [4]; 0.39 index in test [5]; 1.17 index in test [6]. The figures for the Index in test [7] and in test [8] were 0.42 index and 3.06 index, respectively.

B3: peptide A6M (Streptococcus pneumoniae) (peptide)
peptide: APYIEKGM
Consider B3, for which the Index in test [9] is 1.04 index; in test [10], 2.9 index; in [11], 3.05 index.

B4: peptide A8E (Streptococcus pneumoniae) (peptide)
peptide: AQKRLAPYIE
With B4, the Index in [9] stood at 0.95 index; in test [10], 0.41 index; in test [11], 3.02 index.

B5: peptide E8E (HCV) (peptide)
peptide: ECSQHLPYIE
Take B5: the Index in test [9] came out at 0.9 index; in [10], 0.85 index; in test [11], 2.92 index.

For the origin of these results see patent US20150024380A1.
